Test results published in patent US20130315910A1 (Xencor, published 2013).

T1: human FcγRIIb receptor protein (R&D Systems) (human, UniProt P31994 46-217)
T1 construct: Bought protein injected over captured antibody in Biacore; also called CD32b
T1 sequence (looked up): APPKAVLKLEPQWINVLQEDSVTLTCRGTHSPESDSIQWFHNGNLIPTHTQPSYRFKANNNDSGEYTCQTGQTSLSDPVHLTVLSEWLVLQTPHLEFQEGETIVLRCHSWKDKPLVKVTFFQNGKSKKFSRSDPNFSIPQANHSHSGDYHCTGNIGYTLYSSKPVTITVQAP

T2: human FcγRIIa (131R), His- and GST-tagged (human, UniProt P12318 34-217)
T2 construct: Expressed in HEK293T cells, purified by nickel chromatography; also called R131 FcγRIIa; not shown: 6xHis and GST tags of the pTT5 vector
T2 sequence (looked up): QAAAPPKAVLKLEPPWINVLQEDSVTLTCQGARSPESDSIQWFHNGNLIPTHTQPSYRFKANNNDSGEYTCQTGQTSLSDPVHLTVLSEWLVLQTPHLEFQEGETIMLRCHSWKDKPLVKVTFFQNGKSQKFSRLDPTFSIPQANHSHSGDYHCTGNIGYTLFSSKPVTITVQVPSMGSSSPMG

T3: human FcγRIIa (131H), His- and GST-tagged (human, UniProt P12318 34-217)
T3 construct: also called H131 FcγRIIa; HIIa; not shown: 6xHis and GST tags of the pTT5 vector
T3 sequence (looked up): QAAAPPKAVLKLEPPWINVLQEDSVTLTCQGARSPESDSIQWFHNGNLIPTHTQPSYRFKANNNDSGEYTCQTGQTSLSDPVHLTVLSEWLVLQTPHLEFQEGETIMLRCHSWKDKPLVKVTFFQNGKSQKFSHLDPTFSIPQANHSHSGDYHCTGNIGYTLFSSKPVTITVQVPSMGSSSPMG

T4: human FcγRIIb on cells (transfected HEK293T cells; primary human B cells) (human, UniProt P31994 43-310)
T4 construct: whole, on cells; also called CD32b
T4 sequence (looked up): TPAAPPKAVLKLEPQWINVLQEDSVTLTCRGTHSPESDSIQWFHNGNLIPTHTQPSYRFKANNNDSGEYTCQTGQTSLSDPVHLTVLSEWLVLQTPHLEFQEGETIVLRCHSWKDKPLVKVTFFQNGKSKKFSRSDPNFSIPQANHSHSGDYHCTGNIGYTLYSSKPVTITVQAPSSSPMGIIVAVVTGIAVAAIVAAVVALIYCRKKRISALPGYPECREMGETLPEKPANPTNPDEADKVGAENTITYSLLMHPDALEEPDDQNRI

T5: mFcγRIIb (Mus musculus, UniProt P08101)
T5 construct: extracellular region, C-terminal His- and GST-tag; also called mouse FcγRII
T5 sequence (receptor extracellular region, looked up): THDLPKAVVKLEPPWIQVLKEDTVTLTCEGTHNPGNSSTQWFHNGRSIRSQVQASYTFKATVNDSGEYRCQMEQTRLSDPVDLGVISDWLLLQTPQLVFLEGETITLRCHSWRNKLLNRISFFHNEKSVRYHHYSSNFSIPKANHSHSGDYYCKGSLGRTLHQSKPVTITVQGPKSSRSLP

T6: mFcγRIV
T6 construct: also called mouse FcγRIV; not shown: C-terminal His and GST tags (named only on our card)
T6 chain: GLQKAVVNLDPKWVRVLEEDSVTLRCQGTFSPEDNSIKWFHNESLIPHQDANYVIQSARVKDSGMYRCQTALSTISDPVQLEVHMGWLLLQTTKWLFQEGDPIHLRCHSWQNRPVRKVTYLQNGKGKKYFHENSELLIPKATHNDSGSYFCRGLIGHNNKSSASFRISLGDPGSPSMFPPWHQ

T7: cynoFcγRIIb (Macaca fascicularis, UniProt A0A140HDP4)
T7 construct: extracellular region, C-terminal His- and GST-tag; also called cynomolgus monkey FcγRIIb
T7 sequence (receptor extracellular region): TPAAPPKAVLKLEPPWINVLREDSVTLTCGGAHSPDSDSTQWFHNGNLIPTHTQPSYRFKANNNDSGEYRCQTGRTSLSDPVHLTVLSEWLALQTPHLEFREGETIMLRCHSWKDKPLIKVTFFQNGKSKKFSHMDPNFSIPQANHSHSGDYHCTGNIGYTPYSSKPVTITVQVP


Legend:
[1] = molecular target: T1, human FcγRIIb receptor protein (R&D …); assay: SPR
[2] = molecular target: T8, human FcγRI receptor protein (R&D Systems) (human, UniProt P12314 16-288); assay: SPR
T8 construct: also called soluble FcγRI; solFcγRI

[3] = molecular target: T2, human FcγRIIa (131R), His- and …; assay: SPR
[4] = molecular target: T3, human FcγRIIa (131H), His- and …; assay: SPR
[5] = molecular target: T9, human FcγRIIIa (158V), His- and GST-tagged (human, UniProt P08637 17-208); assay: SPR
T9 construct: also called V158 FcγRIIIa; VIIIa; not shown: 6xHis and GST tags of the pTT5 vector

[6] = molecular target: T10, human FcγRIIIa (158F), His- and GST-tagged (human, UniProt P08637 17-208); assay: SPR
T10 construct: also called F158 FcγRIIIa; not shown: 6xHis and GST tags of the pTT5 vector

[7] = molecular target: T1, human FcγRIIb receptor protein (R&D …); assay: Biacore SPR, antibody captured on protein A/G chip, FcγR injected, 1:1 Langmuir fit
Procedure: Variants were screened for receptor affinity using Biacore™ technology, also referred to as Biacore herein, a surface plasmon resonance (SPR) based technology for studying biomolecular interactions in real time. SPR measurements were performed using a Biacore 3000 instrument (Biacore, Piscataway, N.J.). A protein A/G (Pierce Biotechnology) CM5 biosensor chip (Biacore) was generated using a standard primary amine coupling protocol. All measurements were performed using HBS-EP buffer (10 mM HEPES pH 7.4, 0.15 M NaCl, 3 mM EDTA, 0.005% vol/vol surfactant P20, Biacore). Antibodies at 20 nM or 50 nM in HBS-EP buffer were immobilized on the protein A/G surface and FcγRs were injected. After each cycle, the surface was regenerated by injecting glycine buffer (10 mM, pH 1.5). Data were processed by zeroing time and response before the injection of FcγR and by subtracting appropriate nonspecific signals (response of reference channel and injection of running buffer). Kinetic analyses were performed by global fitting of binding data with a 1:1 Langmuir binding model using BIAevaluation software (Biacore).

[8] = molecular target: T4, human FcγRIIb on cells (transfected …); assay: flow cytometry on FcγRIIb-transfected 293T cells [top left panel]
Procedure: (§1) In order to validate the Biacore data and evaluate receptor binding of the variants on the cell surface, binding of select antibodies to cells expressing FcγRIIb was measured. […] HEK293T cells in DMEM with 10% FBS were transfected with human FcγRIIb cDNA in pCMV6 expression vector (Origene Technologies, Rockville, Md.), cultured for 3 days, harvested, washed twice in PBS, resuspended in PBS with 0.1% BSA (PBS/BSA), and aliquoted at 2×10^5 cells per well into 96-well microtiter plates. Fc variant antibodies were serially diluted in PBS/BSA then added to the cells and incubated with mixing for 1 h at room temperature. After extensive washing with PBS/BSA, phycoerythrin (PE)-labeled anti-human-Fab-specific goat F(ab′)2 fragment was added for detection. Cells were incubated for 30 min at room temperature, washed, and resuspended in PBS/BSA. Binding was evaluated using a FACSCanto II flow cytometer (BD Biosciences, San Jose, Calif.), and the mean fluorescence intensity (MFI) was plotted as a function of antibody concentration using Graph Pad Prism software (GraphPad Software, San Diego, Calif.) from which half-maximal binding (EC50) values were determined by sigmoidal dose response modeling.

[9] = molecular target: T4, human FcγRIIb on cells (transfected …); assay: flow cytometry on FcγRIIb-transfected 293T cells [top right panel]
Procedure: as §1

[10] = molecular target: T4, human FcγRIIb on cells (transfected …); assay: flow cytometry on FcγRIIb-transfected 293T cells [middle left panel]
Procedure: as §1

[11] = molecular target: T4, human FcγRIIb on cells (transfected …); assay: flow cytometry on FcγRIIb-transfected 293T cells [middle right panel]
Procedure: as §1

mFcγRIIb = molecular target: T5, mFcγRIIb; assay: SPR
mFcγRIV = molecular target: T6, mFcγRIV; assay: SPR
cynoFcγRIIb = molecular target: T7, cynoFcγRIIb; assay: SPR
cynoFcγRIIIa = molecular target: T11, cynoFcγRIIIa (Macaca fascicularis, UniProt Q8SPW2); assay: SPR, Kd
T11 construct: extracellular region, C-terminal His- and GST-tag; also called cynomolgus monkey FcγRIIIa
How it was run: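 Kinetic constants came from global 1:1 Langmuir fits of reference- and buffer-subtracted sensorgrams, with association and dissociation followed in real time. Cynomolgus FcγR ectodomains flowed over antibodies (20 nM or 50 nM) held on protein A/G CM5 surface, HBS-EP pH 7.4, Biacore 3000; glycine pH 1.5 regeneration.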

[12] = molecular target: T4, human FcγRIIb on cells (transfected …); assay: flow cytometry on HEK293T cells transfected with human FcγRIIb, PE anti-human Fab detection
Procedure: as §1

[13] = molecular target: T4, human FcγRIIb on cells (transfected …); assay: flow cytometry on FcγRIIb-transfected 293T cells [bottom left panel]
Procedure: as §1
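Throughout, for Fold vs WT IgG1 (off-rate): fold improvement over WT IgG1 so higher means slower dissociation than WT.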

T8 sequence (P12314 16-288 limits assumed): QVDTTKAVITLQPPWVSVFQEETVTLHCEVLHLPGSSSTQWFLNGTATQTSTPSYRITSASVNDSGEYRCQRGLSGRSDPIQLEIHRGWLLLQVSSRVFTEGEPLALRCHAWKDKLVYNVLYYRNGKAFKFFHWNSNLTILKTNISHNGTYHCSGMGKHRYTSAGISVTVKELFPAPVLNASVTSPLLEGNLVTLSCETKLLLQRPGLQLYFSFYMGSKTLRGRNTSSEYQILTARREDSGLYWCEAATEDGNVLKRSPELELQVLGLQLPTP
T9 sequence (P08637 17-208 F176V): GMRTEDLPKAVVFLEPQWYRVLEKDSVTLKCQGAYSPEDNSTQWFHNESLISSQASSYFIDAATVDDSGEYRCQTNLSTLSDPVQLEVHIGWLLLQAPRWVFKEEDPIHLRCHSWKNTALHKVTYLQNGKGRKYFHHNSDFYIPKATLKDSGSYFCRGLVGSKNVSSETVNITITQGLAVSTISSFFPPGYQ
T10 sequence (P08637 17-208): as the sequence (P08637 17-208 F176V) above, with V160F counted along it
T11 sequence (Q8SPW2 17-208): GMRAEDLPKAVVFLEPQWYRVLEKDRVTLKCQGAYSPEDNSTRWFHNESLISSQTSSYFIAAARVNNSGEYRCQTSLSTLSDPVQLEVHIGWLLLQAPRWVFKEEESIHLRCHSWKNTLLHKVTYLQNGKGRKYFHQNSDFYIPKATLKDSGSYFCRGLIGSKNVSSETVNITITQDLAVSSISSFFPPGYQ

Binder	Fold vs WT IgG1 [1] [fold]	Fold vs WT IgG1 [2] [fold]	Kd [2] [nM]	Fold vs WT IgG1 [3] [fold]	Kd [3] [nM]	Fold vs WT IgG1 [4] [fold]	Kd [4] [nM]	Fold vs WT IgG1 [5] [fold]	Kd [5] [nM]	Kd [1] [nM]	other results
anti-CD19 antibody HuAM4G7, WT (native) IgG1 (antibody, also called WT IgG1; anti-CD19-IgG1; copies: 2 + 2) heavy: not shown light: DIVMTQSPATLSLSPGERATLSCRSSKSLQNVNGNTYLYWFQQKPGQSPQLLIYRMSNLNSGVPDRFSGSGSGTEFTLTISSLEPEDFAVYYCMQHLEYPITFGAGTKLEIKRTVAAPSVFIFPPSDEQLKSGTASVVCLLNNFYPREAKVQWKVDNALQSGNSQESVTEQDSKDSTYSLSSTLTLSKADYEKHKVYACEVTHQGLSSPVTKSFNRGEC	1	1	0.329	1	859	1	646	1	191	–	Fold vs WT IgG1 [6]: 1 fold; Kd [7]: 1470 nM
S239D/I332E (antibody, human IgG1, kappa, HuAM4G7 anti-CD19 IgG1 (m1) with these Fc substitutions, EU index; copies: 2 + 2) heavy: not shown light: DIVMTQSPATLSLSPGERATLSCRSSKSLQNVNGNTYLYWFQQKPGQSPQLLIYRMSNLNSGVPDRFSGSGSGTEFTLTISSLEPEDFAVYYCMQHLEYPITFGAGTKLEIKRTVAAPSVFIFPPSDEQLKSGTASVVCLLNNFYPREAKVQWKVDNALQSGNSQESVTEQDSKDSTYSLSSTLTLSKADYEKHKVYACEVTHQGLSSPVTKSFNRGEC	–	–	0.0374	–	68.6	–	163	–	–	101	Kd [6]: 28.2 nM; EC50 (read off the curve) [8]: ~0.02 µg/mL; EC50 (read off the curve) [9]: ~0.02 µg/mL; EC50 (read off the curve) [10]: ~0.03 µg/mL; EC50 (read off the curve) [11]: ~0.03 µg/mL

Now from value to binder, other results behind:

Fold vs WT IgG1 [1] [fold]	Fold vs WT IgG1 [2] [fold]	Kd [2] [nM]	Fold vs WT IgG1 [3] [fold]	Kd [3] [nM]	Fold vs WT IgG1 [4] [fold]	Kd [4] [nM]	Fold vs WT IgG1 [5] [fold]	Kd [5] [nM]	Kd [1] [nM]	Binder	other results
242	1.5	0.22	275	3.12	0.7	923	0.038	5040	6.06	anti-CD19 antibody HuAM4G7 IgG1 S267E/L328F (antibody, Positions in EU numbering; also called anti-CD19-S267E/L328F; α-CD19-S267E/L328F; copies: 2 + 2) heavy: not shown light: DIVMTQSPATLSLSPGERATLSCRSSKSLQNVNGNTYLYWFQQKPGQSPQLLIYRMSNLNSGVPDRFSGSGSGTEFTLTISSLEPEDFAVYYCMQHLEYPITFGAGTKLEIKRTVAAPSVFIFPPSDEQLKSGTASVVCLLNNFYPREAKVQWKVDNALQSGNSQESVTEQDSKDSTYSLSSTLTLSKADYEKHKVYACEVTHQGLSSPVTKSFNRGEC	Fold vs WT IgG1 (Kd) (mFcγRIIb): 1.06 fold; Fold vs WT IgG1 (off-rate) (mFcγRIIb): 4.89 fold; Fold vs WT IgG1 (Kd) (mFcγRIV): 0.02 fold; Fold vs WT IgG1 (off-rate) (mFcγRIV): 0.198 fold; Fold vs WT IgG1 (Kd) (cynoFcγRIIb): 0.881 fold; Fold vs WT IgG1 (off-rate) (cynoFcγRIIb): 1.26 fold; binding result (cynoFcγRIIIa): no binding; fold EC50 relative to WT IgG1 [12]: ~320 fold
37.2	0.00347	95	37.5	22.9	0.941	687	–	–	39.4	anti-CD19 antibody HuAM4G7 IgG1 L235Y/S267E (antibody, Positions in EU numbering; copies: 2 + 2) heavy: not shown light: DIVMTQSPATLSLSPGERATLSCRSSKSLQNVNGNTYLYWFQQKPGQSPQLLIYRMSNLNSGVPDRFSGSGSGTEFTLTISSLEPEDFAVYYCMQHLEYPITFGAGTKLEIKRTVAAPSVFIFPPSDEQLKSGTASVVCLLNNFYPREAKVQWKVDNALQSGNSQESVTEQDSKDSTYSLSSTLTLSKADYEKHKVYACEVTHQGLSSPVTKSFNRGEC	binding result [5]: no binding; EC50 (read off the curve) [13]: ~0.006 µg/mL
